Laboratory results as given in doi:10.1101/2022.02.20.481182.

How the values were obtained:
[1] = target: BRPF2 bromodomain F648A mutant (UniProt O95696); test: pull-down
[2] = target: BRPF2 bromodomain, wild-type, N-terminal His6-tagged (UniProt O95696); test: pull-down
[3] = target: BRPF2 bromodomain, wild-type, N-terminal His6-tagged (UniProt O95696); test: ITC

Chain of BRPF2 bromodomain, wild-type, N-terminal His6-tagged (O95696 556-688): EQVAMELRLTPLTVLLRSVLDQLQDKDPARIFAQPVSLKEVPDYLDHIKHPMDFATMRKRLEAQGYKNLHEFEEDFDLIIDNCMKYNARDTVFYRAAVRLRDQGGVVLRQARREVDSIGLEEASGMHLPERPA
Chain of BRPF2 bromodomain F648A mutant (O95696 556-688 F648A): as the sequence (O95696 556-688) above, with F93A counted along it

endogenous hyperacetylated histone H4 bearing the K5ac mark (from UniProt P62805 1-103) (natural protein)
fold reduction of binding against the wild type [1]: 1.5 fold | fold reduction of binding with BAY-299 against without inhibitor [2]: 3 fold

histone H2AK5ac (1-12) peptide (from UniProt P0C0S8 2-13)
Kd [3]: 55.2 µM

histone H4Kac4 (H4K5/8/12/16) (1-20) peptide (from UniProt P62805 2-21)
Kd [3]: 12.2 µM
